Experimental data taken from article PMC5666606 (The EMBO Journal, 2017).

Experiments:
RBPJ-(53-474) [1] = molecular target: T1, RBPJ-(53-474) (mouse, UniProt P31266 53-474); assay: ITC
RBPJ-(53-474) [2] = molecular target: T1, RBPJ-(53-474); assay: ITC; remark: listed apart in the source

T1 sequence (P31266 53-474): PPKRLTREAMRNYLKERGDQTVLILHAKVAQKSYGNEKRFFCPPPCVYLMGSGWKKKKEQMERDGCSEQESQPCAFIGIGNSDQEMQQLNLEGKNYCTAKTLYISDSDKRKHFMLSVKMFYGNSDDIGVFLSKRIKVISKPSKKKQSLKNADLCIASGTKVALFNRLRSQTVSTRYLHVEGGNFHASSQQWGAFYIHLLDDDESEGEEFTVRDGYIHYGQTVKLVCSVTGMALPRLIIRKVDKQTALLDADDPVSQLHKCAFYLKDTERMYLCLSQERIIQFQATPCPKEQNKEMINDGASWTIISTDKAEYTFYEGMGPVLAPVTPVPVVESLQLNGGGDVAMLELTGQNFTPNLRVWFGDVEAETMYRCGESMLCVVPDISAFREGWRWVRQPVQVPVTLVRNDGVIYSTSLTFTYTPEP

- stoichiometry N (RBPJ-(53-474) [1]): 1
- Ka (RBPJ-(53-474) [2]): 2.27e+06 M⁻¹
- Kd (RBPJ-(53-474) [2]): 450 nM
- dH (RBPJ-(53-474) [2]): -7.52 kcal/mol
B1: L3MBTL3-(31-70) (domain or fragment, human, UniProt Q96JM7 31-70, looked up)
chain: SDLKFRVNEFGALEVITDENEMENVKKATATTTWMVPTAQ
